Assay results reported in patent publication US20080131423A1 (US Dept. of Health and Human Services, published 2008).
Positions count from the first letter of the chain named.

B1: scFv A1 (scFv)
scFv: MAEVQLLESGGGLVQPGGSLRLSCAASGFTFSSYAMSWVRQAPGKGLEWVSGIGTTGYATAYADSVKGRFTISRDNSKNTLYLQMNSLRAEDTAVYYCAKGNSGFDYWGQGTLVTVSSGGGGSGGGGSGGGGSTDIQMTQSPSSLSASVGDRVTITCRASQSISSYLNWYQQKPGKAPKLLIYTASTLQSGVPSRFSGSGSGTDFTLTISSLQPEDFATYYCQQSSTDPGTFGQGTKVEIKRAAAHHHHHHGAAEQKLISEEDLNGAA
notes: Human scFv from the Tomlinson I phage library; Soluble form purified on Protein L; also called GenBank DQ375449
B2: scFv A8 (scFv)
scFv: B1 scFv with A59S, G101T, N102A, S103Y, G104T, T184S, S225N, D228Y, G230A
notes: Human scFv from the Tomlinson I phage library; Soluble form purified on Protein L; also called GenBank DQ375451
B3: scFv D1 (scFv)
scFv: B1 scFv with G52A, G101A, G104Y, T184S, S225D, D228S, G230D
notes: Human scFv from the Tomlinson I phage library; Soluble form purified on Protein L; also called GenBank DQ375454
B4: scFv A7 (scFv)
scFv: MAEVQLLESGGGLVQPGGSLRLSCAASGFTFSSYAMSWVRQAPGKGLEWVSAIGSYGSATAYADSVKGRFTISRDNSKNTLYLQMNSLRAEDTAVYYCAKNGYDFDYWGQGTLVTVSSGGGGSGGGGSGGGGSTDIQMTQSPSSLSASVGDRVTITCRASQSISSYLNWYQQKPGKAPKLLIYNASGLQSGVPSRFSGSGSGTDFTLTISSLQPEDFATYYCQQSAANPSTFGQGTKVEIKRAAAHHHHHHGAAEQKLISEEDLNGAA
notes: Human scFv from the Tomlinson I phage library; Soluble form purified on Protein L; also called GenBank DQ375450
B5: scFv B8 (scFv)
scFv: MAEVQLLESGGGLVQPGGSLRLSCAASGFTFSSYAMSWVRQAPGKGLEWVSNITASGYATAYADSVKGRFTISRDNSKNTLYLQMNSLRAEDTAVYYCAKTTATFDYWGQGTLVTVSSGGGGSGGGGSGGGGSTDIQMTQSPSSLSASVGDRVTITCRASQSISSYLNWYQQKPGKAPKLLIYDASNLQSGVPSRFSGSGSGTDFTLTISSLQPEDFATYYCQQDTASPSTFGQGTKVEIKRAAAHHHHHHGAAEQKLISEEDLNGAA
notes: Human scFv from the Tomlinson I phage library; Soluble form purified on Protein L; also called GenBank DQ375452
B6: scFv C10 (scFv)
scFv: MAEVQLLESGGGLVQPGGSLRLSCAASGFTFSSYAMSWVRQAPGKGLEWVSGISSTGGATTYADSVKGRFTISRDNSKNTLYLQMNSLRAEDTAVYYCAKSTYDFDYWGQGTLVTVSSGGGGSGGGGSGGGGSTDIQMTQSPSSLSASVGDRVTITCRASQSISSYLNWYQQKPGKAPKLLIYGASTLQSGVPSRFSGSGSGTDFTLTISSLQPEDFATYYCQQNADAPTTFGQGTKVEIKRAAAHHHHHHGAAEQKLISEEDLNGAA
notes: Human scFv from the Tomlinson I phage library; Soluble form made in E. coli HB2151 and purified on Protein L (28 kDa); also called clone C10

Each binder was assayed against BSA (UniProt P02769 25-607) (assay: phage ELISA, immobilized antigen (data not shown)).
BSA, sequence (P02769 25-607 limits assumed): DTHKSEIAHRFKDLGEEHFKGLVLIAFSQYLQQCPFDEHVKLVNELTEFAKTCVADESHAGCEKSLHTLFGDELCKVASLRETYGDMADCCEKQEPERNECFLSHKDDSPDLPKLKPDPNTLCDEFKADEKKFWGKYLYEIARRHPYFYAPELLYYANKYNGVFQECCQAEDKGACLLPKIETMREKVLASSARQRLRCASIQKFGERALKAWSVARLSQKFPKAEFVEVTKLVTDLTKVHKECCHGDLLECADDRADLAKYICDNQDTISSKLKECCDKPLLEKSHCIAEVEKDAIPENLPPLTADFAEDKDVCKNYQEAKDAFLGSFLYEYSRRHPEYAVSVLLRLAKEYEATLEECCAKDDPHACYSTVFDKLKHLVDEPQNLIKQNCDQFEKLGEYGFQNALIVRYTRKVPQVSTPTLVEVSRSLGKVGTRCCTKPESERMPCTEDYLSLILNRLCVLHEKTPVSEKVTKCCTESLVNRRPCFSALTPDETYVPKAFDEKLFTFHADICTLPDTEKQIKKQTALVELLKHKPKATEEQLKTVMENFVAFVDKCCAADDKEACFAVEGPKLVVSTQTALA
B1: no binding.
B2: no binding.
B3: no binding.
B4: no binding.
B5: no binding.
B6: no binding.

What follows are binders tested against T1, human TREM-like transcript-1 (TLT-1) (human, UniProt Q86YW5 16-311) (assay: flow cytometry, purified scFv on TLT-1 transfected cells).
T1 construct: whole, on cells; bands of 35 and 25 kDa; also called hTLT-1; TLT-1 on (HEK)293T transfected cells
T1 sequence (looked up): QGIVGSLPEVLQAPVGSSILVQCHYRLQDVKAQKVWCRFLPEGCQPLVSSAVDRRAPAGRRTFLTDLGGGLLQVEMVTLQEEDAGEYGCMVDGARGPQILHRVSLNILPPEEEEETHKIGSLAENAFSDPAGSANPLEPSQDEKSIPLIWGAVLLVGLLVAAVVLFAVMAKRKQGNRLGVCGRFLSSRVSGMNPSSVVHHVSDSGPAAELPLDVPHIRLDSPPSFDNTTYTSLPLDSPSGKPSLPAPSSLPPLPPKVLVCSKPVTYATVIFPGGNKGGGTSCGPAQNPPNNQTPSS
Procedure: For flow cytometric analysis with TLT-1-transfected cells, phage-containing supernatants were prepared from individual colonies as previously described (14). (HEK)293T-TLT-1 transfected cells (2×10⁵ cells) were washed with PBS/1% BSA and incubated with phages (2×10¹⁰ TU) or purified scFv (1 μg/ml). After 1 hr of incubation at 4° C., cells were washed twice with PBS/1% BSA. Phage binding was detected by incubation with mouse anti-M13 monoclonal antibody (Amersham Bioscience, Piscataway, N.J.), followed by incubation with phycoerithrin (PE)-conjugated anti-mouse antibody (Jackson Immunoresearch, West Grove, Pa.). To analyze scFv binding to human platelets, platelets were incubated with 1 μg of purified scFv for 1 hour at 4° C. and washed three times with PBS containing 0.5% sodium azide and 0.5% BSA. ScFv binding was detected using a FITC-conjugated anti-c-myc antibody (Sigma, St Louis, Mo.). TLT-1 expression was detected with a commercial anti-human TLT-1 pAb (R&D Systems, MN) as previously described (10).
B1: binds.
B2: binds.
B3: binds.
B4: binds.
